Test results: patent publication US20230374116A1 (ROSALIND FRANKLIN INSTITUTE, published 2023)
Like-named read-outs stand apart in the source and are kept apart here.

B1: H3 (VHH)
VHH: QVQLVESGGGLVKTGGSLRLSCAASGRTFSTYSMGWFRQAPGKEREFVAGMRWTGSSTFYSDSVKGRFTVSRNNAKDTVYLHMNSLKPEDTAVYYCAITTIVRAYYTEYTEADFGSWGQGTQVTVSS
B2: F2 (VHH)
VHH: QVQLVESGGGLVQAGGSLRLACIASGRTFHSYVMAWFRQAPGKEREFVAAISWSSTPTYYGESVKGRFTISRDNAKNTVYLQMNRLKPEDTAVYFCAADRGESYYYTRPTEYEFWGQGTQVTVSS
notes: also called VHH F2
B3: C1 trimer (VHH)
chain: QVQLVESGGGLVQPGGSLRLSCAASGFTNDFYSIAWFRQAPGKEREGVSWLSVSDNTPTYVDSVKDRFTISRHNANNTVYLQMNMLKPEDTAIYYCAAGRFAGRDTWPSSYDYWGQGTQVTVSSGSGSGSQVQLVESGGGLVQPGGSLRLSCAASGFTNDFYSIAWFRQAPGKEREGVSWLSVSDNTPTYVDSVKDRFTISRHNANNTVYLQMNMLKPEDTAIYYCAAGRFAGRDTWPSSYDYWGQGTQVTVSSGSGSGSQVQLVESGGGLVQPGGSLRLSCAASGFTNDFYSIAWFRQAPGKEREGVSWLSVSDNTPTYVDSVKDRFTISRHNANNTVYLQMNMLKPEDTAIYYCAAGRFAGRDTWPSSYDYWGQGTQVTVSS
B4: H3 trimer (VHH)
chain: QVQLVESGGGLVKTGGSLRLSCAASGRTFSTYSMGWFRQAPGKEREFVAGMRWTGSSTFYSDSVKGRFTVSRNNAKDTVYLHMNSLKPEDTAVYYCAITTIVRAYYTEYTEADFGSWGQGTQVTVSSGAVLAPQVQLVESGGGLVKTGGSLRLSCAASGRTFSTYSMGWFRQAPGKEREFVAGMRWTGSSTFYSDSVKGRFTVSRNNAKDTVYLHMNSLKPEDTAVYYCAITTIVRAYYTEYTEADFGSWGQGTQVTVSSGSGSGSQVQLVESGGGLVKTGGSLRLSCAASGRTFSTYSMGWFRQAPGKEREFVAGMRWTGSSTFYSDSVKGRFTVSRNNAKDTVYLHMNSLKPEDTAVYYCAITTIVRAYYTEYTEADFGSWGQGTQVTVSS
B5: C5 (VHH)
VHH: QVQLVESGGGSVQAGGSLTLSCVASGVTLGRHAIGWFRQAPGKERERVSCIRTFDGITSYVESTKGRFTISSNNAMNTVYLQMNSLKPEDTAVYFCALGVTAACSDNPYFWGQGTQVTVSS
notes: also called VHH C5
B6: C1 (VHH)
VHH: QVQLVESGGGLVQPGGSLRLSCAASGFTNDFYSIAWFRQAPGKEREGVSWLSVSDNTPTYVDSVKDRFTISRHNANNTVYLQMNMLKPEDTAIYYCAAGRFAGRDTWPSSYDYWGQGTQVTVSS
B7: C5 trimer (VHH)
chain: QVQLVESGGGSVQAGGSLTLSCVASGVTLGRHAIGWFRQAPGKERERVSCIRTFDGITSYVESTKGRFTISSNNAMNTVYLQMNSLKPEDTAVYFCALGVTAACSDNPYFWGQGTQVTVSSGSGSGSQVQLVESGGGSVQAGGSLTLSCVASGVTLGRHAIGWFRQAPGKERERVSCIRTFDGITSYVESTKGRFTISSNNAMNTVYLQMNSLKPEDTAVYFCALGVTAACSDNPYFWGQGTQVTVSSGSGSGSQVQLVESGGGSVQAGGSLTLSCVASGVTLGRHAIGWFRQAPGKERERVSCIRTFDGITSYVESTKGRFTISSNNAMNTVYLQMNSLKPEDTAVYFCALGVTAACSDNPYFWGQGTQVTVSS
notes: also called trimeric C5 nanobody; C5-6GS-C5-6GS-C5

How the values were obtained:
[1] = target: Alpha RBD
[2] = target: Alpha RBD; remark: listed apart in the source

Binder | Kd [1] [nM] | T1/2 [1] [min] | Kd [2] [nM] | T1/2 [2] [min] | koff [2] [s⁻¹] | kon [2] [M⁻¹ s⁻¹]
B1 | 0.102 | 10 |  |  |  | 
B2 | 0.047 | 51 |  |  |  | 
B3 |  |  | 0.073 | 154 | 7.4e-05 | 1e+06
B4 |  |  | 0.006 | 98 | 0.00012 | 1.8e+07
B5 | 2.52 | 1 |  |  |  | 
B6 | 0.725 | 21 |  |  |  | 
B7 |  |  | 0.029 | 41 |  | 
